Laboratory results published in the nanobody polyreactivity screen of Harvey et al. (2022).

Assay: yeast display, Sf9 membrane polyspecificity reagent, FACS + sequencing; frameworks hold sequencing errors
Summary of the method: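 Nanobodies from a synthetic yeast display library (Saccharomyces cerevisiae BJ5465), induced 36–48 hours with galactose, were stained 1 hour at 4 °C with 10% biotinylated, detergent-solubilized Sf9 membrane reagent, enriched on streptavidin microbeads, then FACS-sorted. Anti-HA (expression) and streptavidin (reagent binding) fluorescence set low and high (top ~1%) gates. Polyreactivity labels come from the gate of origin. Genes were colony-PCR amplified, MiSeq 2 × 250 sequenced and filtered by CDR length.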

Sequence	polyreactivity (PSR sort gate)
QVQLVESGGGLVQAGGSLRLSCAASGSIFTRYAMGWYRQAPGKERELVAAISTSGGSTYYADSVKGRFTISRDNAKNTVYLQMNSLKPEDTAVYYCAADDQRRSGYYSWGQGTQVTVSS	high polyreactivity
QVQLVESGGGLVQAGGSLRLSCAASGSIFGGYAMGWYRQAPGKERELVAAISYRGASTYYADSVKGRFTISRDNAKNTVYLQMNSLKPEDTAVYYCAVAARTRARVLYGYDYWGQGSQVTVSS	low polyreactivity
QVQLVESGGGLVQAGGSLRLSCAASGRIFTSYAMGWYRQAPGKERELVAAINRGGSTYYADSVKGRFTISRDNAKNTVYLQMNSLKPEDTAVYYCAAGTRSRAPYYRTIVDTYGYWGQGTQVTVSS	low polyreactivity
QVQLVESGGGLVQAGGSLRLSCAASGSTFDDNVMGWYRQAPGKERELVASSTSGGGTNYADSVKGRFTISRDNAKNTVYLQMKSLKPEDTAVYYCAARTQGRRLDYGYWGQGTQVTVSS	low polyreactivity
QVQLVESGGGLVQAGGSLRLSCAASGFTFRFYAMGWYRQAPGKERELVATISSRGGRTYYADSVKGRFTISRDNAKNTVYLQMNSLKPEDTAVYYCAADQKSQYQGNYWGQGTQVTVSS	high polyreactivity
QVQHVESGGGLVQAGGSLSLSCAASARTFRRNVMGLYRQAPGKERELVAAISYGANTNYADSVKGRFTISRDNAKNTVYLQMNSLKPEDTAVYYCAAGEGWRSRTFDYWGQGTQVTVSS	low polyreactivity
QVQLVESGGGLVQAGGSLRLSCAASGSTFIKYTMGWYRQAPGKERELVAAISVRGGSTTYADSVKGRFTISRDNAKNTVYLQRNSLKPEDTAVYYCAKDHYYAGTWRYGYWGQGTQVTVSS	high polyreactivity
QVQLVESGGGLVQAGGSLRLSCAASGLTFVYYAMGWYRQAPGKERELVASIDYSGSSTYYADSVKGRFTISRDNSKNTVYLQMNSLKPEDTAVYYCAATDSGEYWGQGTQVTVSS	low polyreactivity
QVQLVESGGGLVQAGGSLRLSCAASGSILVAYAMGWYRQAPGKERELVAAISSVGNTYYADSVKGRFTISRDNAKNTVYLQMNSLIPEDTAVYYCNAVYRVWYAEWSTVGSPHDYWGQGTQVTVSS	low polyreactivity
QVQLVESGGGLVQAGGSLRLSCAAYGITFTPNAMGWYRQAPGKEREFVAAITYSGGSTYYADSVKGRFTISRDNAKNTVYLQMNSLKPEDTAVYYCAAVYYLLYYEAYYYWGQGTQVTVSS	low polyreactivity
QVQHVESGGGLVQAGGSLRLSCAASGSILGVNAMGWYRQAPGKERELVAAISRTGGTTYYADSVKGRFTISRDNAKNTVYLQMHSLKPEDTAVYYCAGDVVFTSVPTGYLGYEYWGQGTQVTVSS	high polyreactivity
QVQLVESGGGLVQAGGSLRLSCAASGSIFRYYAMGWYRQAPGKERELVATITSGGSTSYADSVKGRFTISRDNAKNTVYLQMNSLKPEDTAVYYCAKRSRHNKYYYWGQGTQVTVSS	high polyreactivity
QVQLVESGAGFVQAGGSLRLTCAASGRNLSWYAMGWYRQAPGKEREYVAAITSSGASTYYADSVKGRFTISRDNAKNTVYLQMNSLKPEDTAVYYSNAAWRRVWFNYWGQGTQVTVSS	high polyreactivity
QVQLEESGGGLDQAGGSLRLSCAASGSIFYYYAMGWYRQAPGKERELVAVIDFSGASTSYAVSVKGRFTISRDNAKITVYLQMNSLKPEDTAVYYCAADRRSKYDYWGQGTQVTVSS	low polyreactivity
QVHLVESGGGLVQAGGSLRLSCAASGSIFSYYAMGWYRQAPGKERELVAAISQSGGSTYYSDSVKGRFTISRDNAKNTVYLQMNSLKPEDTAVYYCNSGRGTFKRYTALQYWGQGTQVTVSS	low polyreactivity
QVQLVESGGGLVQAGGSLRLSCAASGRIFQYYAMGWYRQAPGKERELVAAIDQSGDTTYYADSVKGRFTISRDNAKNTVYLQMNSLKPEDTAVYYCAAGYDWAYHWVPQWMYYWGQGTQVTVSS	low polyreactivity

Sequence	polyreactivity (PSR sort gate)
QVQLLESGGGLVQAGGILRLRCAASGIIVRGYVMGWYRQAPGKESELVAAISTSGGRTSYADSVKGRFTISRDNAKNTVYLQMNSLKPEDTAVYYCAARPLYSYSQSGYGYWGQGTQVTVSS	high polyreactivity
QVQLVESGGGLVQAGGSLRLSCAASGRISGVNAMGWYRQAPGKERELVATISGSGGRTYYADSVKGRFTISRDNAKNTVYLQMNSLKPEDTAVYYCNTLVQRGGYFSRRFDYWGQGTQVTVSS	low polyreactivity
QVQLVESGGGLVQAGGSLRLTCAASGNTFYGYSKGWYRQATGKERELVASISLSGDSTYYADSVKGRFTISRDNAKNTVYLQLNSLKPEDTAVYYCAGVYTYPLGYYHYTYDYWGQGTQVTVSS	low polyreactivity
QVQLVESGGGLVQAGGSLRLSCAASGNTFQWYVMGWYRQAPGKERELVAAITTRGGSTYYADSVKGRFTISRDNAKNTVYLQMNSLKPEDTAVYYCAKDWYASWYTKYDYWGQGTQVTVSS	low polyreactivity
QVQLVESGGGLVQAGGSLGLSWAASGSIIRYNALGWYRQAPGKERELVAAITKGAGSTYYADSEKGRFTISRDNAKNTVYLHMNSLKPEDTEVYYCNKARGSGHTYYSWGQGTQVTVSS	high polyreactivity
QVQLVESGGGLVQAGGSLRLSCAASGIIFTYNAMGWYRQPPGKERELVAAISASGSSTYYADSVKGRFTISLDNAKNTVYLQMNSLKPEDTAVYYCAARTRRGLARYDYWGQGTQGTVSS	high polyreactivity
QVQLVESGGGLVQAGGSLRLSCAASGRIIYGYARGWYRQAPGKERELVAAISASGGRTYYADSVKGRFTISRDNAKNTVYLQMNSLKPEDTAVYYCARARFYWLTQWSYDYWGQGTQVTVSS	high polyreactivity
QVQLVESGGGLVQAGGSLRLSCAASGRTFYIYAMGWYRQAPGNERELVADISSSDDSTYYADSEKGRFTISRDNAKNTVYLQMNSLKPEDTAVYYCAAELYYFFDEHYYWGQGTQVTVSS	low polyreactivity
QVQRVESGGGLVQAGGSLRLTSAASGSTFGTNAMGWYRQAPGTERELVATISKSGGSTYYADSVKGRFTISRDNAKNTVYLQMNSLKPEANAVYYCARRYRDYGRYGYWGQGTEVTVSS	high polyreactivity
QVQLVETGGGLVQAGGSLRLSCAASGITFFGYDIGWYRQAPGKERELVAAINSRGGNTYYADSVKGRFTISRDNAKYTVYLQMNSLKPEDTAVYYCAARRYYNRAYGYWGQGTQVTVSS	high polyreactivity
QVQLVESGGGLVQAGGSLRLSCAASGLTFKRYAMGWYRQAPGTEREFVAAISAGGASTHYADSVKGRFTISRDNAKNTVYLQMNSLKPEDTAVYYCATDYRTFRPSFGYWGQGTQVTVSS	low polyreactivity
QVQLVESGGGLVQAGGSLRLSCPASGRIFGTYPMGWSRQEPGKESELVARITRGSSTYYADSVKGRFTISRDNAKNTVYLQMNSLKPEDTAVYYCAAVGWGYSYRARYGYWGQGTQVTVSS	high polyreactivity
QVQLVDSGGGLVQAGGSLRLSCAASGSIILLNAMGWYRQAPGKEREMVARIRINGGSTYYADSVKGRFTISRDNAKNTVYLKMNSLKPEDTAVYYCAADDTGPYSNWYDYWGQGTQVTVSS	low polyreactivity
QVQLVESGGGLVQAGGSLRLSCAASGFIIARNAMGWYRQAPGKERELVAAISASGGRTYYADSVKGRFTISRDNAKNTVYLKKNSLKPEDTAVYYCAAAVLRYALRFDYWGQGTQVTVSS	high polyreactivity
QVQLVESGGRLVQAGGSLRLSCAASGFTFVYYAMGWYRQAPGKERELVAAVSWSGGTTYYADSVKGRFTISRDNAKNTVLLQMNSLKPEDTAVYYCNVYPAYNYFDYDYWGQGTQVTVSS	high polyreactivity
QVQLVESGGGLVQAGGSNRLSCAASGLTSFRYTMGWYRQAPGKDRELVAGISGSRGRTYYADSVKGRFTISRDNAKNTVYLQMNCMKAVDTAVYDCAAGWYTSHAKGKGGYWGQGTQVTVSS	high polyreactivity
